This is an account of results in PMC3727925 (Molecular Biology of the Cell, 2013).

The target of the experiment is T1, CHMP3 (human, UniProt Q9Y3E7 1-222).
T1 sequence (looked up): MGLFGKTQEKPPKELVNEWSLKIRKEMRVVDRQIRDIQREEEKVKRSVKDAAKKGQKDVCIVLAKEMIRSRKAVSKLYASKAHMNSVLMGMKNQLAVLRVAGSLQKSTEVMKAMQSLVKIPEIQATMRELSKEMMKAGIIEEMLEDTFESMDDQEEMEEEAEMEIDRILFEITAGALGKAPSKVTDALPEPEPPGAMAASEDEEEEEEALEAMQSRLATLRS
As to the kind of experiment: negative-stain electron microscopy.

B1: CHMP2A (natural protein, human, UniProt O43633 1-222, looked up)
chain: MDLLFGRRKTPEELLRQNQRALNRAMRELDRERQKLETQEKKIIADIKKMAKQGQMDAVRIMAKDLVRTRRYVRKFVLMRANIQAVSLKIQTLKSNNSMAQAMKGVTKAMGTMNRQLKLPQIQKIMMEFERQAEIMDMKEEMMNDAIDDAMGDEEDEEESDAVVSQVLDELGLSLTDELSNLPSTGGSLSVAAGGKKAEAAASALADADADLEERLKNLRRD
In the case of B1, the binding result is “binds”.
